Consider eleven molecules from patent US20230220084A1.

Experiment [1] concerns the target hCLEC12A-His fusion protein (human) (UniProt Q5QGZ9). The experiment is described as follows: SPR screening, semi-purified protein.
The target in experiment [2] is human CLEC12A expressed on cells (human) (UniProt Q5QGZ9). Nature of the experiment: flow cytometry, hCLEC12A+Ba/F3 cells. Background: Flow cytometry measures light scatter and fluorescence of single cells or particles in a stream.
Experiment [3] shares this target. The experiment is described as follows: flow cytometry, HL60 cells.

Sequence of human CLEC12A expressed on cells (human) (Q5QGZ9 whole entry): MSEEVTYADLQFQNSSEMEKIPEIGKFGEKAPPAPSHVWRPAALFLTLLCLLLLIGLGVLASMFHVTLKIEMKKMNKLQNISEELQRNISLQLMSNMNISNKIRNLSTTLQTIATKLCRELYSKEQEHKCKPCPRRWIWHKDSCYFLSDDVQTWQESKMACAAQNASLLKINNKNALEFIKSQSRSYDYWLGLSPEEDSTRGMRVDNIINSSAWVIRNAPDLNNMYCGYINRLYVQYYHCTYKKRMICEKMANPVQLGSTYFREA
Sequence of hCLEC12A-His fusion protein (human) (Q5QGZ9 65-265 limits assumed): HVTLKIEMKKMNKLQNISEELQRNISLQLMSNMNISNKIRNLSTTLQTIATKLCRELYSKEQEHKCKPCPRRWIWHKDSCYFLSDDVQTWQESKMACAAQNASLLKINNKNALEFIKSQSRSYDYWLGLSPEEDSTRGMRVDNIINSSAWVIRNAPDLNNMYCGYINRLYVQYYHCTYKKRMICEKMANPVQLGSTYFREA

B1: F3′-1306 (bispecific antibody, part only; not given: Fc and unrelated binding arm, not shown: another chain or arm of the molecule; a dimerising Fc or GST; small tags and cut ends)
scFv: DIQMTQSPSSLSASVGDRVTITCHASQNINFWLSWYQQKPGKAPKLLIYEASNLHTGVPSRFSGSGSGTRFTLTISSLQPEDIATYYCQQSHSYPLTFGCGTKLEIKGGGGSGGGGSGGGGSGGGGSQLQLQESGPGLVKPSETLSLTCTVSGFSLTNYGLHWIRQPPGKCLEWIGVIWSGGKTDYNPSLKSRVTISKDTSKNQFSLKLSSVQANDTAVYYCAKYDYDDSLDYWGQGTLVTVSS
By Kd is commonly meant the concentration at which binding is half-saturated. The low end stands for tighter binding, the high end for weaker binding. For orientation: koff means the first-order rate constant of dissociation. Low values mean slow dissociation, high ones fast dissociation. One may read the kon as a measure of how fast the partners come together. Consider B1, for which, in experiment [1], the Kd came out at 5.16 nM, the koff was 0.0489 s⁻¹ and the kon is 9.48e+06 M⁻¹ s⁻¹.

B2: AB0010 (bispecific antibody, part only; not given: constant domains, Fc, unrelated scFv, V domains shown, not shown: another chain or arm of the molecule; a dimerising Fc or GST)
VH: QLQLQESGPGLVKPSETLSLTCTVSGFSLTNYGLHWIRQPPGKGLEWIGVIWSGGKTDYNPSLKSRVTISKDTSKNQFSLKLSSVQAADTAVYYCAKYDYDDSLDYWGQGTLVTVSS
VL: DIQMTQSPSSLSASVGDRVTITCHASQNINFWLSWYQQKPGKAPKLLIYEASNLHTGVPSRFSGSGSGTRFTLTISSLQPEDIATYYCQQSHSYPLTFGGGTKLEIK
What is called EC50 is the concentration that produces a half-maximal response. B2: the values for the half-maximal effective concentration (EC50) in experiment [2] and in experiment [3] were 6.13 nM and 4.2 nM, respectively. Moreover, the Max MFI is 54800 MFI in experiment [2] and 6060 MFI in experiment [3].

B3: AB0191 (bispecific antibody, part only; not given: Fc, unrelated binder arm, linkers, not shown: another chain or arm of the molecule; a dimerising Fc or GST; small tags and cut ends)
scFv: EVQLVESGGGVVQPGGSLRLSCAASGFTFNSFGMHWVRQAPGKCLEWVAFISSGSTSIYYANTVKGRFTISRDNSKNTLYLQMNSLRAEDTAVYYCARDGYPTGGAMDYWGQGTSVTVSSGGGGSGGGGSGGGGSGGGGSDIQMTQSPSSLSASVGDRVTITCKASQDIYNYLSWFQQKPGKAPKPLIYRANILVSGVPSRFSGSGSGQDYTFTISSLQPEDIATYYCLQFDAFPFTFGCGTKLEIK
For B3, in experiment [1], the equilibrium dissociation constant (Kd) was found to be 1.73 nM, the off-rate (koff) was 0.00126 s⁻¹ and the kon turned out to be 728000 M⁻¹ s⁻¹. Besides, in experiment [2], the concentration for a half-maximal effect (EC50) stood at 0.6 nM and the Max binding MFI came out at 7940 MFI. Moreover, in experiment [3], the concentration giving a half-maximal response (EC50) worked out at 0.6 nM and the Max binding MFI came to 420 MFI.

B4: AB0192 (bispecific antibody, part only; not given: Fc, unrelated binder arm, linkers, not shown: another chain or arm of the molecule; a dimerising Fc or GST; small tags and cut ends)
scFv: EVQLVESGGGVVQPGGSLRLSCAASGFTFNAFGMHWVRQAPGKCLEWVAFISSGSTSIYYANTVKGRFTISRDNSKNTLYLQMNSLRAEDTAVYYCARDGYPTGGAMDYWGQGTSVTVSSGGGGSGGGGSGGGGSGGGGSDIQMTQSPSSLSASVGDRVTITCKASQDIYNYLSWFQQKPGKAPKPLIYRANILVSGVPSRFSGSGSGQDYTFTISSLQPEDIATYYCLQFDAFPFTFGCGTKLEIK
In experiment [1], B4 yielded a dissociation constant Kd of 1.26 nM, a dissociation rate constant (koff) of 0.00138 s⁻¹ and a kon of 1.09e+06 M⁻¹ s⁻¹. For the same molecule, in experiment [2], the EC50 amounted to 0.7 nM and the Max binding MFI was determined as 10200 MFI. Also, in experiment [3], the EC50 came to 0.6 nM and the Max binding MFI worked out at 503 MFI.

B5: AB0185 (bispecific antibody, part only; not given: Fc, unrelated binder arm, linkers, not shown: another chain or arm of the molecule; a dimerising Fc or GST; small tags and cut ends)
scFv: DIQMTQSPSSLSASVGDRVTITCKASQDIYNYLSWFQQKPGKAPKPLIYRANILVSGVPSRFSGSGSGQDYTFTISSLQPEDIATYYCLQFDAFPFTFGCGTKLEIKGGGGSGGGGSGGGGSGGGGSEVQLVESGGGVVQPGGSLRLSCAASGFTFNSFGMHWVRQAPGKCLEWVAFISSGSTSIYYANTVKGRFTISRDNSKNTLYLQMNSLRAEDTAVYYCARDGYPTGGAMDYWGQGTSVTVSS
In experiment [1], B5 yielded a Kd of 1.4 nM, a koff of 0.00101 s⁻¹ and a kon of 726000 M⁻¹ s⁻¹. In addition, in experiment [2], the concentration giving a half-maximal response (EC50) amounted to 0.7 nM and the Max binding MFI worked out at 8020 MFI. In experiment [3], this molecule returned an EC50 of 0.4 nM and a Max binding MFI of 372 MFI.

B6: AB0186 (bispecific antibody, part only; not given: Fc, unrelated binder arm, linkers, not shown: another chain or arm of the molecule; a dimerising Fc or GST; small tags and cut ends)
scFv: DIQMTQSPSSLSASVGDRVTITCKASQDIYNYLSWFQQKPGKAPKPLIYRANILVSGVPSRFSGSGSGQDYTFTISSLQPEDIATYYCLQFDAFPFTFGCGTKLEIKGGGGSGGGGSGGGGSGGGGSEVQLVESGGGVVQPGGSLRLSCAASGFTFNAFGMHWVRQAPGKCLEWVAFISSGSTSIYYANTVKGRFTISRDNSKNTLYLQMNSLRAEDTAVYYCARDGYPTGGAMDYWGQGTSVTVSS
In experiment [1], B6 had a Kd of 1.04 nM, a koff of 0.00117 s⁻¹ and a kon of 1.12e+06 M⁻¹ s⁻¹. Further, in experiment [2], the EC50 was determined as 0.7 nM and the Max binding MFI came out at 8160 MFI. Further, in experiment [3], the EC50 stood at 0.5 nM and the Max binding MFI amounted to 412 MFI.

B7: AB0188 (bispecific antibody, part only; not given: Fc, unrelated binder arm, linkers, not shown: another chain or arm of the molecule; a dimerising Fc or GST; small tags and cut ends)
scFv: DIKMTQSPSSLSASVGDRVTITCKASQDIYNYLSWFQQKPGKAPKPLIYRANILVSGVPSRFSGSGSGQDYTLTISSLQPEDIATYYCLQFDAFPFTFGCGTKLEIKGGGGSGGGGSGGGGSGGGGSEVQLVESGGGVVQPGGSLRLSCAASGFTFNSFGMHWVRQAPGKCLEWVAFISSGSTSIYYANTVKGRFTISRDNSKNTLYLQMNSLRAEDTAVYYCARDGYPTGGAMDYWGQGTSVTVSS
In experiment [1], B7 gave a Kd of 1.58 nM, a koff of 0.000901 s⁻¹ and a kon of 569000 M⁻¹ s⁻¹.

B8: AB0189 (bispecific antibody, part only; not given: Fc, unrelated binder arm, linkers, not shown: another chain or arm of the molecule; a dimerising Fc or GST; small tags and cut ends)
scFv: DIKMTQSPSSLSASVGDRVTITCKASQDIYNYLSWFQQKPGKAPKPLIYRANILVSGVPSRFSGSGSGQDYTLTISSLQPEDIATYYCLQFDAFPFTFGCGTKLEIKGGGGSGGGGSGGGGSGGGGSEVQLVESGGGVVQPGGSLRLSCAASGFTFNAFGMHWVRQAPGKCLEWVAFISSGSTSIYYANTVKGRFTISRDNSKNTLYLQMNSLRAEDTAVYYCARDGYPTGGAMDYWGQGTSVTVSS
B8: in experiment [1], the Kd stood at 1.21 nM, the koff amounted to 0.00127 s⁻¹ and the kon was found to be 1.04e+06 M⁻¹ s⁻¹. In experiment [2], this molecule came in with an EC50 of 1.3 nM and a Max binding MFI of 8760 MFI. In experiment [3], this molecule returned an EC50 of 0.7 nM and a Max binding MFI of 420 MFI.

B9: F3′-1292 (bispecific antibody, part only; not given: Fc and unrelated binding arm, not shown: another chain or arm of the molecule; a dimerising Fc or GST)
scFv: QLQLQESGPGLVKPSETLSLTCTVSGFSLTNYGLHWIRQPPGKCLEWIGVIWSGGKTDYNPSLKSRVTISKDTSKNQFSLKLSSVQANDTAVYYCAKYDYDDSLDYWGQGTLVTVSSGGGGSGGGGSGGGGSGGGGSDIQMTQSPSSLSASVGDRVTITCHASQNINFWLSWYQQKPGKIPKLLIYEASNLHTGVPSRFSGSGSGTRFTLTISSLQPEDIATYYCQQSHSYPLTFGCGTKLEIK
In experiment [1], B9 had a Kd of 3.22 nM, an off-rate constant (koff) of 0.0013 s⁻¹ and a kon of 402000 M⁻¹ s⁻¹.

B10: F3′-1296 (bispecific antibody, part only; not given: Fc and unrelated binding arm, not shown: another chain or arm of the molecule; a dimerising Fc or GST)
scFv: QLQLQESGPGLVKPSETLSLTCTVSGFSLTNYGLHWIRQPPGKCLEWIGVIWSGGKTDYNPSLKSRVTISKDTSKNQFSLKLSSVQANDTAVYYCARYDYDDSLDYWGQGTLVTVSSGGGGSGGGGSGGGGSGGGGSDIQMTQSPSSLSASVGDRVTITCHASQNINFWLSWYQQKPGKIPKLLIYEASNLHTGVPSRFSGSGSGTRFTLTISSLQPEDIATYYCQQSHSYPLTFGCGTKLEIK
For B10, in experiment [1], the Kd stood at 1.34 nM, the koff stood at 0.00117 s⁻¹ and the association rate constant (kon) turned out to be 874000 M⁻¹ s⁻¹.

B11: F3′-1297 (bispecific antibody, part only; not given: Fc and unrelated binding arm, not shown: another chain or arm of the molecule; a dimerising Fc or GST; small tags and cut ends)
scFv: QLQLQESGPGLVKPSETLSLTCTVSGFSLTNYGLHWIRQPPGKCLEWIGVIWSGGKTDYNPSLKSRVTISKDTSKNQFSLKLSSVQANDTAVYYCAKYDYDDSLDYWGQGTLVTVSSGGGGSGGGGSGGGGSGGGGSDIQMTQSPSSLSASVGDRVTITCHASQNINFWLSWYQQKPGKAPKLLIYEASNLHTGVPSRFSGSGSGTRFTLTISSLQPEDIATYYCQQSHSYPLTFGCGTKLEIK
Consider B11, for which, in experiment [1], the Kd was determined as 2.79 nM, the koff was 0.00141 s⁻¹ and the on-rate (kon) is 504000 M⁻¹ s⁻¹.
